# Test system: Escherichia coli TOP10
# Test: shrunken log2 fold change of peptide-encoding DNA abundance (4.5 h post-induction vs induction); higher = less antimicrobial activity (less host growth inhibition)
# Details: time post-induction: 4.5 h; library: site-saturation at positions 5, 18, 19, 20
# 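Also: peptides expressed intracellularly from a pBAD plasmid library in pooled LB shake-flask culture, induced with 0.3% L-arabinose, DNA abundance read by NGS, three biological replicates, DESeq2 with apeglm shrinkage.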
row,Sequence,shrunken log2 fold change
1,RRIRCRPPRLPRPRPRPRPIPRP,0.266
2,RRIRSRPPRLPRPRPRPINFPRP,-0.168
3,RRIRMRPPRLPRPRPRPCMSPRP,-0.00161
4,RRIRERPPRLPRPRPRPKSRPRP,0.0203
5,RRIRIRPPRLPRPRPRPIIIPRP,-0.598
6,RRIRMRPPRLPRPRPRPQVIPRP,-0.0579
7,RRIRKRPPRLPRPRPRPKGLPRP,-0.00973
8,RRIRARPPRLPRPRPRPASLPRP,0.196
9,RRIRNRPPRLPRPRPRPAMKPRP,0.284
10,RRIRARPPRLPRPRPRPQFHPRP,-0.116
11,RRIRKRPPRLPRPRPRPILMPRP,0.0297
12,RRIRPRPPRLPRPRPRPYGRPRP,-0.213
13,RRIRFRPPRLPRPRPRPEELPRP,0.0201
14,RRIRHRPPRLPRPRPRPIYAPRP,0.0179
15,RRIRTRPPRLPRPRPRPFQHPRP,-0.214
16,RRIRMRPPRLPRPRPRPIGKPRP,0.208
17,RRIRLRPPRLPRPRPRPEENPRP,-0.00256
18,RRIRCRPPRLPRPRPRPHKYPRP,-0.618
19,RRIRPRPPRLPRPRPRPNETPRP,0.0335
20,RRIRNRPPRLPRPRPRPVAIPRP,-0.507
21,RRIRGRPPRLPRPRPRPVDYPRP,-0.0159
22,RRIRGRPPRLPRPRPRPEVIPRP,0.073
23,RRIRTRPPRLPRPRPRPGICPRP,-0.0258
24,RRIRWRPPRLPRPRPRPPQIPRP,0.117
25,RRIRARPPRLPRPRPRPERMPRP,0.618

row,Sequence,shrunken log2 fold change
1,RRIRSRPPRLPRPRPRPSPHPRP,-0.194
2,RRIRYRPPRLPRPRPRPCKPPRP,-0.00151
3,RRIRERPPRLPRPRPRPQYHPRP,-0.172
4,RRIRSRPPRLPRPRPRPGFHPRP,0.0792
5,RRIRFRPPRLPRPRPRPCQPPRP,-0.134
6,RRIRDRPPRLPRPRPRPTPDPRP,0.536
7,RRIRDRPPRLPRPRPRPGRCPRP,0.53
8,RRIRSRPPRLPRPRPRPEKYPRP,-1.28
9,RRIRIRPPRLPRPRPRPTCDPRP,-0.369
10,RRIRYRPPRLPRPRPRPFKNPRP,-0.426
11,RRIRKRPPRLPRPRPRPDHWPRP,0.355
12,RRIRLRPPRLPRPRPRPIIHPRP,-0.186
13,RRIRPRPPRLPRPRPRPGTHPRP,-0.017
14,RRIRPRPPRLPRPRPRPPIEPRP,-0.0597
15,RRIRPRPPRLPRPRPRPKSDPRP,0.0265
16,RRIRIRPPRLPRPRPRPPDEPRP,-0.0174
17,RRIRRRPPRLPRPRPRPAFLPRP,-0.0132
18,RRIRQRPPRLPRPRPRPMIQPRP,0.0718
19,RRIRPRPPRLPRPRPRPEGRPRP,0.545
20,RRIRVRPPRLPRPRPRPFTCPRP,-0.216
21,RRIRSRPPRLPRPRPRPHSEPRP,-0.0351
22,RRIRIRPPRLPRPRPRPPRWPRP,0.514
23,RRIRSRPPRLPRPRPRPEWWPRP,0.0594
24,RRIRDRPPRLPRPRPRPNITPRP,-0.289
25,RRIRLRPPRLPRPRPRPDNKPRP,-0.357

row,Sequence,shrunken log2 fold change
1,RRIRDRPPRLPRPRPRPLDLPRP,-0.116
2,RRIRPRPPRLPRPRPRPVYCPRP,-0.375
3,RRIRSRPPRLPRPRPRPAPPPRP,0.458
4,RRIRDRPPRLPRPRPRPGLNPRP,0.184
5,RRIRHRPPRLPRPRPRPKVNPRP,-0.181
6,RRIRCRPPRLPRPRPRPHVCPRP,0.0221
7,RRIRDRPPRLPRPRPRPCYHPRP,-0.019
8,RRIRGRPPRLPRPRPRPWINPRP,-0.137
9,RRIRDRPPRLPRPRPRPIIMPRP,-0.226
10,RRIRGRPPRLPRPRPRPLCYPRP,0.238
11,RRIRWRPPRLPRPRPRPGFQPRP,0.127
12,RRIRHRPPRLPRPRPRPAGWPRP,0.449
13,RRIRQRPPRLPRPRPRPQQEPRP,0.0811
14,RRIRYRPPRLPRPRPRPRPAPRP,0.393
15,RRIRKRPPRLPRPRPRPILIPRP,0.0193
16,RRIRMRPPRLPRPRPRPGYVPRP,-0.118
17,RRIRMRPPRLPRPRPRPPQTPRP,0.424
18,RRIRARPPRLPRPRPRPGHTPRP,0.129
19,RRIRFRPPRLPRPRPRPHWAPRP,-0.0371
20,RRIRARPPRLPRPRPRPPASPRP,0.77
21,RRIRRRPPRLPRPRPRPDWLPRP,0.365
22,RRIRHRPPRLPRPRPRPLDMPRP,-0.0339
23,RRIRLRPPRLPRPRPRPCQQPRP,-0.047
24,RRIRCRPPRLPRPRPRPHIVPRP,-0.325
25,RRIRFRPPRLPRPRPRPKMSPRP,-0.369

row,Sequence,shrunken log2 fold change
1,RRIRVRPPRLPRPRPRPQGVPRP,-0.275
2,RRIRVRPPRLPRPRPRPHHCPRP,-0.74
3,RRIRDRPPRLPRPRPRPTMEPRP,0.335
4,RRIRKRPPRLPRPRPRPGHRPRP,0.118
5,RRIRARPPRLPRPRPRPIRCPRP,0.188
6,RRIRCRPPRLPRPRPRPSFRPRP,-0.439
7,RRIRERPPRLPRPRPRPIYYPRP,-0.726
8,RRIRMRPPRLPRPRPRPFHHPRP,-0.419
9,RRIRFRPPRLPRPRPRPEFEPRP,0.122
10,RRIRARPPRLPRPRPRPMIYPRP,0.00125
11,RRIRQRPPRLPRPRPRPTALPRP,-0.0491
12,RRIRYRPPRLPRPRPRPVYGPRP,-0.0722
13,RRIRNRPPRLPRPRPRPRHGPRP,-0.0314
14,RRIRRRPPRLPRPRPRPGDTPRP,0.0234
15,RRIRNRPPRLPRPRPRPYEYPRP,-0.675
16,RRIRIRPPRLPRPRPRPLINPRP,-0.444
17,RRIRQRPPRLPRPRPRPQICPRP,-0.229
18,RRIRFRPPRLPRPRPRPCCQPRP,-0.439
19,RRIRLRPPRLPRPRPRPIQNPRP,-0.403
20,RRIRSRPPRLPRPRPRPEMCPRP,-0.104
21,RRIRTRPPRLPRPRPRPLGGPRP,0.137
22,RRIRFRPPRLPRPRPRPEWSPRP,0.219
23,RRIRWRPPRLPRPRPRPFFLPRP,-0.0114
24,RRIRWRPPRLPRPRPRPPLVPRP,0.443
25,RRIRNRPPRLPRPRPRPHGKPRP,0.0681

row,Sequence,shrunken log2 fold change
1,RRIRCRPPRLPRPRPRPTNNPRP,-0.619
2,RRIRGRPPRLPRPRPRPALPPRP,0.696
3,RRIRVRPPRLPRPRPRPPWDPRP,0.445
4,RRIRQRPPRLPRPRPRPNVIPRP,-0.0189
5,RRIRERPPRLPRPRPRPTVGPRP,-0.116
6,RRIRARPPRLPRPRPRPKANPRP,0.297
7,RRIRGRPPRLPRPRPRPYQSPRP,0.00308
8,RRIRLRPPRLPRPRPRPQISPRP,-0.272
9,RRIRIRPPRLPRPRPRPFQYPRP,-0.0506
10,RRIRDRPPRLPRPRPRPLTQPRP,0.0757
11,RRIRERPPRLPRPRPRPEKFPRP,-0.287
12,RRIRTRPPRLPRPRPRPMRQPRP,-0.01
13,RRIRTRPPRLPRPRPRPDPLPRP,-0.145
14,RRIRYRPPRLPRPRPRPTMGPRP,0.0568
15,RRIRYRPPRLPRPRPRPNYEPRP,-0.399
16,RRIRCRPPRLPRPRPRPQEPPRP,0.359
17,RRIRIRPPRLPRPRPRPHDWPRP,-0.317
18,RRIRRRPPRLPRPRPRPEEYPRP,-0.173
19,RRIRGRPPRLPRPRPRPQQRPRP,1.43
20,RRIRIRPPRLPRPRPRPPNIPRP,-0.0703
21,RRIRKRPPRLPRPRPRPFGSPRP,-0.00822
22,RRIRSRPPRLPRPRPRPFWGPRP,0.176
23,RRIRGRPPRLPRPRPRPTNFPRP,-0.0941
24,RRIRQRPPRLPRPRPRPFWRPRP,-0.044
25,RRIRGRPPRLPRPRPRPDPIPRP,0.126

row,Sequence,shrunken log2 fold change
1,RRIRFRPPRLPRPRPRPVWCPRP,-0.158
2,RRIRQRPPRLPRPRPRPQLYPRP,0.119
3,RRIRQRPPRLPRPRPRPSWNPRP,-0.238
4,RRIRYRPPRLPRPRPRPNSVPRP,-0.257
5,RRIRHRPPRLPRPRPRPSRIPRP,0.111
6,RRIRWRPPRLPRPRPRPYDEPRP,-0.114
7,RRIRTRPPRLPRPRPRPTHEPRP,0.746
8,RRIRDRPPRLPRPRPRPHNKPRP,-0.373
9,RRIRSRPPRLPRPRPRPFYFPRP,-0.55
10,RRIRTRPPRLPRPRPRPGGFPRP,0.413
11,RRIRGRPPRLPRPRPRPCCCPRP,0.946
12,RRIRTRPPRLPRPRPRPGLPPRP,0.189
13,RRIRQRPPRLPRPRPRPNPQPRP,0.129
14,RRIRLRPPRLPRPRPRPGKEPRP,0.0418
15,RRIRWRPPRLPRPRPRPFAKPRP,0.382
16,RRIRVRPPRLPRPRPRPFYAPRP,-0.357
17,RRIRPRPPRLPRPRPRPCEQPRP,0.102
18,RRIRHRPPRLPRPRPRPSESPRP,-0.232
19,RRIRPRPPRLPRPRPRPCPPPRP,-0.0276
20,RRIRNRPPRLPRPRPRPCCSPRP,-0.0427
21,RRIRTRPPRLPRPRPRPQTCPRP,-0.176
22,RRIRNRPPRLPRPRPRPCNHPRP,-0.298
23,RRIRKRPPRLPRPRPRPHQMPRP,0.0681
24,RRIRMRPPRLPRPRPRPVRKPRP,0.136
25,RRIRVRPPRLPRPRPRPEFLPRP,0.0805
